Our source for the molar ratio and stoichiometry N values is publication PMC4332406.

The assay deals with Human α-defensin 5 (human). Description: SPR.

Take Human α-defensin 5 (peptide): the molar ratio came to 1 and the stoichiometry N – broadly, a count of units in the complex or per binding partner – was found to be 2.
